The text below walks through data of paper PMC5716075, “Conserved asymmetry underpins homodimerization of Dicer-associated double-stranded RNA-binding proteins” (Nucleic Acids Research, 2017).

Series [1] concerns the target T1, full length (FL) PACT (protein activator of PKR) (human), O75569.
T1 chain: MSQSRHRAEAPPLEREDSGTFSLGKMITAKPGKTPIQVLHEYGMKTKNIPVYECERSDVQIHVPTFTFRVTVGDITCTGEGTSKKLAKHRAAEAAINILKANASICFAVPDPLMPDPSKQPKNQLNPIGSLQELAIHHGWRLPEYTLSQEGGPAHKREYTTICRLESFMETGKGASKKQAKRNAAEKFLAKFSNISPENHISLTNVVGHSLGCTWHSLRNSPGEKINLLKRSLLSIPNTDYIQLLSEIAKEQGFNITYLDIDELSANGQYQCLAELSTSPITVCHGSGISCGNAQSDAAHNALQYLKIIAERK
The series is described as follows: SEC-MALS; SEC-MALLS; Superdex S75 10/30 (except where otherwise noted), 20 mM MES pH 6.5, 200 mM NaCl, 1 mM dithiothreitol, 0.5 ml/minute; 100 μl of protein at 2–5 mg/ml injected. The note with it: remark: other sources report otherwise.

Series [2] concerns the molecule itself. The series is described as above.

B1: full length (FL) PACT (protein activator of PKR), O75569 1-313 (natural protein)
chain: MSQSRHRAEAPPLEREDSGTFSLGKMITAKPGKTPIQVLHEYGMKTKNIPVYECERSDVQIHVPTFTFRVTVGDITCTGEGTSKKLAKHRAAEAAINILKANASICFAVPDPLMPDPSKQPKNQLNPIGSLQELAIHHGWRLPEYTLSQEGGPAHKREYTTICRLESFMETGKGASKKQAKRNAAEKFLAKFSNISPENHISLTNVVGHSLGCTWHSLRNSPGEKINLLKRSLLSIPNTDYIQLLSEIAKEQGFNITYLDIDELSANGQYQCLAELSTSPITVCHGSGISCGNAQSDAAHNALQYLKIIAERK
As to B1, the stoichiometry N in series [1] was 2.

B2: PACT-D3 (PACT residues 239-313, core dsRBD 3), wild type (domain or fragment, human, UniProt O75569 239-313, looked up)
chain: TDYIQLLSEIAKEQGFNITYLDIDELSANGQYQCLAELSTSPITVCHGSGISCGNAQSDAAHNALQYLKIIAERK
notes: Grown in M9 with 15N ammonium chloride (and 13C glucose for 3D NMR samples); also called WT PACT-D3; source: E. coli BL21 (DE3), purified (HisTrap, tag removed with 3C protease, Superdex S75); not shown: His6, N-terminal, cleaved; MBP, N-terminal, cleaved
For the molecule B2, in series [2], the “stoichiometry N” value amounted to 2.

B3: Loqs-D3 (Loquacious residues 392-463, dsRBD 3), wild type (domain or fragment, Drosophila, UniProt Q9VJY9 392-463, looked up)
chain: IDYIKLLGEIATENQFEVTYVDIEEKTFSGQFQCLVQLSTLPVGVCHGSGPTAADAQRHAAQNALEYLKIMT
notes: Loquacious (Loqs), Drosophila, residues 392-463 (dsRBD 3, Type B); also called WT Loqs-D3; source: E. coli BL21 (DE3), purified (GSTrap, tag removed with tobacco etch virus protease, size exclusion)
Consider B3, for which the “stoichiometry N” value in series [2] stood at 2.

B4: R353H,R354N TRBP-Ext-D3 (PACT-like variant of TRBP-Ext-D3) (domain or fragment, human, UniProt Q15633 258-366, looked up)
chain: NRGPGCTWDSLRNSVGEKILSLRSCSLGSLGALGPACCRVLSELSEEQAFHVSYLDIEELSLSGLCQCLVELSTQPATVCHGSATTREAARGEAAHNALQYLKIMAGSK
notes: source: E. coli BL21 (DE3), purified (HisTrap, tag removed with 3C protease, Superdex S75); not shown: His6, N-terminal, cleaved; MBP, N-terminal, cleaved
Consider B4, for which, in series [2], the “stoichiometry N” value was 2.

B5: PACT-Ext-D3 (PACT residues 208-313, dsRBD 3 with the conserved N-terminal extension), wild type (domain or fragment, human, UniProt O75569 208-313, looked up)
chain: GHSLGCTWHSLRNSPGEKINLLKRSLLSIPNTDYIQLLSEIAKEQGFNITYLDIDELSANGQYQCLAELSTSPITVCHGSGISCGNAQSDAAHNALQYLKIIAERK
notes: also called WT PACT-Ext-D3; source: E. coli BL21 (DE3), purified (HisTrap, tag removed with 3C protease, Superdex S75); not shown: His6, N-terminal, cleaved; MBP, N-terminal, cleaved
On to B5, for which, in series [2], the “stoichiometry N” value was found to be 2.

For orientation: stoichiometry N means a count of units in the complex or per binding partner.
